These are literature values, as cited in US20060289354A1, “Method and composition to control the growth of microorganisms in aqueous systems and on substrates” (Buckman Laboratories International, Inc., priority 2005, published 2006).

Read-outs that look alike come from different tables or passages of the source.

For the data set the following is noted: for shelf life: original sealed package.

As for lactoperoxidase [LP], the “effect of exposure to elevated temperature” value (>65° C. for short time (10 minutes)) is “denaturation of the protein and loss of the activity”. Further, the shelf life runs as follows: (8° C.) ≥ 2 years; (20° C.) “at least 1 year”. Moreover, for the setting “typical commercial form”, the “optimal pH” value is 5.0-6.5.
